# According to the supplement of paper PMC9112550, “Optimization of the antimicrobial peptide Bac7 by deep mutational scanning” (BMC Biology, 2022):
# Test system: Escherichia coli TOP10
# Assay: shrunken log2 fold change of peptide-encoding DNA abundance (4.5 h post-induction vs induction); higher = less antimicrobial activity (less host growth inhibition)
# Details: time post-induction: 4.5 h; library: site-saturation at positions 5, 18, 19, 20
# 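Also: peptides expressed intracellularly from a pBAD plasmid library in pooled LB shake-flask culture, induced with 0.3% L-arabinose, DNA abundance read by NGS, three biological replicates, DESeq2 with apeglm shrinkage.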
row,Sequence,shrunken log2 fold change
1,RRIRYRPPRLPRPRPRPANEPRP,0.0338
2,RRIRGRPPRLPRPRPRPISTPRP,0.289
3,RRIRRRPPRLPRPRPRPKYHPRP,-0.153
4,RRIRTRPPRLPRPRPRPPTWPRP,0.0779
5,RRIRLRPPRLPRPRPRPESWPRP,0.162
6,RRIRARPPRLPRPRPRPHQCPRP,-0.0483
7,RRIRARPPRLPRPRPRPVETPRP,0.759
8,RRIRMRPPRLPRPRPRPWNWPRP,0.342
9,RRIRKRPPRLPRPRPRPHDMPRP,0.0328
10,RRIRWRPPRLPRPRPRPYIWPRP,-0.477
11,RRIRFRPPRLPRPRPRPKFSPRP,-0.0365
12,RRIRWRPPRLPRPRPRPWHHPRP,-0.0157
13,RRIRRRPPRLPRPRPRPAEGPRP,-0.0943
14,RRIRDRPPRLPRPRPRPYHKPRP,-0.0174
15,RRIRERPPRLPRPRPRPALYPRP,-0.129
16,RRIRFRPPRLPRPRPRPERNPRP,-0.184
17,RRIRRRPPRLPRPRPRPLCQPRP,-0.00285
18,RRIRERPPRLPRPRPRPLYYPRP,-0.694
19,RRIRFRPPRLPRPRPRPAGLPRP,-0.0796
20,RRIRTRPPRLPRPRPRPCRKPRP,-0.0644
21,RRIRFRPPRLPRPRPRPEQEPRP,-0.159
22,RRIRRRPPRLPRPRPRPKIAPRP,0.147
23,RRIRCRPPRLPRPRPRPYQYPRP,-0.399
24,RRIRYRPPRLPRPRPRPAIRPRP,-0.0189
25,RRIRDRPPRLPRPRPRPPFCPRP,0.284

row,Sequence,shrunken log2 fold change
1,RRIRQRPPRLPRPRPRPLRLPRP,0.655
2,RRIRIRPPRLPRPRPRPKPIPRP,-0.0437
3,RRIRPRPPRLPRPRPRPAFRPRP,0.211
4,RRIRSRPPRLPRPRPRPKTHPRP,-0.0477
5,RRIRSRPPRLPRPRPRPHDPPRP,-0.0194
6,RRIRNRPPRLPRPRPRPTERPRP,-0.25
7,RRIRVRPPRLPRPRPRPDYAPRP,-0.0204
8,RRIRSRPPRLPRPRPRPTYNPRP,-0.765
9,RRIRDRPPRLPRPRPRPDKNPRP,-0.224
10,RRIRERPPRLPRPRPRPGMEPRP,0.00479
11,RRIRCRPPRLPRPRPRPAFCPRP,0.172
12,RRIRSRPPRLPRPRPRPEEVPRP,0.0829
13,RRIRCRPPRLPRPRPRPMVFPRP,-0.0164
14,RRIRHRPPRLPRPRPRPPTHPRP,-0.117
15,RRIRLRPPRLPRPRPRPQTAPRP,0.0246
16,RRIRNRPPRLPRPRPRPNERPRP,0.0308
17,RRIRNRPPRLPRPRPRPGHMPRP,-0.147
18,RRIRSRPPRLPRPRPRPKALPRP,0.175
19,RRIRMRPPRLPRPRPRPITSPRP,0.0639
20,RRIRVRPPRLPRPRPRPFGLPRP,-0.0857
21,RRIRNRPPRLPRPRPRPAIFPRP,-0.424
22,RRIRSRPPRLPRPRPRPKCSPRP,-0.122
23,RRIRNRPPRLPRPRPRPQRRPRP,0.135
24,RRIRSRPPRLPRPRPRPGHVPRP,0.1
25,RRIRERPPRLPRPRPRPQKYPRP,-1.15

row,Sequence,shrunken log2 fold change
1,RRIRLRPPRLPRPRPRPSQSPRP,-0.511
2,RRIRVRPPRLPRPRPRPPIIPRP,-0.222
3,RRIRVRPPRLPRPRPRPLESPRP,0.114
4,RRIRLRPPRLPRPRPRPDLQPRP,-0.0184
5,RRIRYRPPRLPRPRPRPIASPRP,-0.196
6,RRIRMRPPRLPRPRPRPSAPPRP,0.51
7,RRIRDRPPRLPRPRPRPSNEPRP,-1.13
8,RRIRARPPRLPRPRPRPKVEPRP,0.571
9,RRIRCRPPRLPRPRPRPKGWPRP,0.811
10,RRIRRRPPRLPRPRPRPAEHPRP,0.313
11,RRIRPRPPRLPRPRPRPWCGPRP,0.0629
12,RRIRMRPPRLPRPRPRPMVCPRP,0.204
13,RRIRNRPPRLPRPRPRPGKGPRP,0.101
14,RRIRDRPPRLPRPRPRPNMAPRP,-0.144
15,RRIRERPPRLPRPRPRPVAIPRP,-0.121
16,RRIRSRPPRLPRPRPRPMYDPRP,0.0313
17,RRIRKRPPRLPRPRPRPARGPRP,0.766
18,RRIRCRPPRLPRPRPRPGQIPRP,0.165
19,RRIRQRPPRLPRPRPRPPCYPRP,-0.0902
20,RRIRYRPPRLPRPRPRPVTTPRP,-0.209
21,RRIRARPPRLPRPRPRPEIAPRP,0.992
22,RRIRIRPPRLPRPRPRPRPLPRP,0.181
23,RRIRCRPPRLPRPRPRPPSQPRP,0.355
24,RRIRYRPPRLPRPRPRPCASPRP,-0.12
25,RRIRPRPPRLPRPRPRPSAIPRP,-0.32

row,Sequence,shrunken log2 fold change
1,RRIRGRPPRLPRPRPRPNITPRP,0.315
2,RRIRNRPPRLPRPRPRPAMCPRP,-0.199
3,RRIRQRPPRLPRPRPRPDFMPRP,-0.316
4,RRIRHRPPRLPRPRPRPHHIPRP,-1.53
5,RRIRARPPRLPRPRPRPDMQPRP,0.984
6,RRIRIRPPRLPRPRPRPRFCPRP,-0.00189
7,RRIRYRPPRLPRPRPRPTVVPRP,-0.477
8,RRIRIRPPRLPRPRPRPHFFPRP,-0.237
9,RRIRQRPPRLPRPRPRPAEKPRP,-0.00963
10,RRIRCRPPRLPRPRPRPHMYPRP,-0.715
11,RRIRCRPPRLPRPRPRPALYPRP,-0.0755
12,RRIRKRPPRLPRPRPRPEIRPRP,0.171
13,RRIRLRPPRLPRPRPRPAALPRP,0.182
14,RRIRSRPPRLPRPRPRPPVSPRP,0.308
15,RRIRCRPPRLPRPRPRPIPSPRP,-0.308
16,RRIRKRPPRLPRPRPRPICMPRP,0.0199
17,RRIRVRPPRLPRPRPRPNTEPRP,-0.665
18,RRIRNRPPRLPRPRPRPFFNPRP,-0.725
19,RRIRIRPPRLPRPRPRPTAPPRP,0.0608
20,RRIRARPPRLPRPRPRPWNLPRP,-0.0204
21,RRIRSRPPRLPRPRPRPQQIPRP,0.153
22,RRIRYRPPRLPRPRPRPWTLPRP,-0.0151
23,RRIRLRPPRLPRPRPRPVDDPRP,-0.219
24,RRIRSRPPRLPRPRPRPQCYPRP,-0.569
25,RRIRVRPPRLPRPRPRPGIVPRP,0.106

row,Sequence,shrunken log2 fold change
1,RRIRKRPPRLPRPRPRPYCYPRP,-0.182
2,RRIRRRPPRLPRPRPRPVLHPRP,0.0722
3,RRIRMRPPRLPRPRPRPAMHPRP,2.86
4,RRIRARPPRLPRPRPRPRLWPRP,0.724
5,RRIRWRPPRLPRPRPRPISKPRP,-0.215
6,RRIRVRPPRLPRPRPRPHCVPRP,-0.315
7,RRIRCRPPRLPRPRPRPSCNPRP,0.329
8,RRIRFRPPRLPRPRPRPVQCPRP,0.0456
9,RRIRIRPPRLPRPRPRPWHCPRP,-0.0926
10,RRIRFRPPRLPRPRPRPHFHPRP,-0.75
11,RRIRYRPPRLPRPRPRPVHAPRP,-0.13
12,RRIRDRPPRLPRPRPRPIYAPRP,-0.288
13,RRIRSRPPRLPRPRPRPTWYPRP,-0.123
14,RRIRLRPPRLPRPRPRPLIHPRP,-0.542
15,RRIRWRPPRLPRPRPRPDVNPRP,-0.125
16,RRIRGRPPRLPRPRPRPPWYPRP,0.26
17,RRIRWRPPRLPRPRPRPSFHPRP,-0.458
18,RRIRTRPPRLPRPRPRPVSMPRP,-0.812
19,RRIRLRPPRLPRPRPRPMPSPRP,-0.0353
20,RRIRERPPRLPRPRPRPHKGPRP,-0.194
21,RRIRWRPPRLPRPRPRPWDCPRP,-0.0326
22,RRIRQRPPRLPRPRPRPMRHPRP,2.84
23,RRIRPRPPRLPRPRPRPLCYPRP,-0.488
24,RRIRRRPPRLPRPRPRPNPAPRP,0.643
25,RRIRGRPPRLPRPRPRPYNFPRP,-0.35

row,Sequence,shrunken log2 fold change
1,RRIRNRPPRLPRPRPRPHPGPRP,-0.0788
2,RRIRPRPPRLPRPRPRPIMEPRP,-0.159
3,RRIRDRPPRLPRPRPRPCFPPRP,-0.0323
4,RRIRIRPPRLPRPRPRPNPPPRP,0.125
5,RRIRHRPPRLPRPRPRPTFTPRP,-0.265
6,RRIRYRPPRLPRPRPRPLMWPRP,-0.0343
7,RRIRTRPPRLPRPRPRPGQTPRP,-0.0115
8,RRIRHRPPRLPRPRPRPNDQPRP,-0.169
9,RRIRPRPPRLPRPRPRPKTHPRP,-0.0419
10,RRIRHRPPRLPRPRPRPRQPPRP,0.474
11,RRIRFRPPRLPRPRPRPMIRPRP,-0.163
12,RRIRGRPPRLPRPRPRPFAHPRP,0.162
13,RRIRARPPRLPRPRPRPWNNPRP,-1.02
14,RRIRGRPPRLPRPRPRPRKWPRP,0.413
15,RRIRMRPPRLPRPRPRPMVPPRP,-0.0114
16,RRIRWRPPRLPRPRPRPRRPPRP,0.508
17,RRIRGRPPRLPRPRPRPNWFPRP,0.469
18,RRIRGRPPRLPRPRPRPMNSPRP,0.0334
19,RRIRLRPPRLPRPRPRPVKPPRP,0.0377
20,RRIRGRPPRLPRPRPRPPLNPRP,0.789
21,RRIRDRPPRLPRPRPRPCNAPRP,0.0759
22,RRIRRRPPRLPRPRPRPILLPRP,-0.149
23,RRIRYRPPRLPRPRPRPVVNPRP,-0.683
24,RRIRLRPPRLPRPRPRPLDTPRP,0.0486
25,RRIRPRPPRLPRPRPRPHGHPRP,0.0412
